Patent US20230192878A1, “METHODS, THERAPIES AND USES FOR TREATING CANCER” (PFIZER INC., priority 2020, published 2023)

Key:
Molp8 = assay: Cell surface BCMA expression after GSI, concentration series; format: cell-based; conditions: 24 hours
Method: (§1) Multiple myeloma cells (MM.1S, OPM2, H929, Molp8, RPMI8226) were seeded in a 96-well U bottom plate at 40,000 cells/well. Cells were incubated for 24 hours in the presence of GSI diluted in RPMI (0.1% DMSO). The following concentrations of the GSI were tested: 1000 nM, 500 nM, 100 nM, 50 nM, 25 nM, 10 nM, 5 nM, 2.5 nM, 1 nM, 0.1 nM, 0.01 nM. 24 hours later cells were collected and washed with PBS+2% FBS, followed by staining with ZombieNIR Viability Dye (Biolegend) at 1 in 500 dilution in PBS at room temperature for 20 minutes. Next, cells were washed with PBS+2% FBS and stained with anti-BCMA PE-labelled antibody (Biolegend) diluted in PBS+2% FBS for 30 minutes at 4° C. Cells were acquired on BD Flow Cytometer and analyzed using FlowJo flow cytometry analysis software. Dead cells were removed from analysis by gating on ZombieNIR negative population. BCMA mean fluorescence intensity (MFI) was plotted against GSI concentration to establish EC50.

OPM2 = assay: as above; format: cell-based; conditions: 24 hours
Method: as §1

RPMI8226 = assay: as above; format: cell-based; conditions: 24 hours
Method: as §1

[1] = First in human Phase 1 clinical study: safety (CRS, DLT); format: in vivo
Source text: This Example illustrates an ongoing Phase 1 open-label, multicenter clinical study of PF-06863135 (BCMAxCD3 bispecific) as monotherapy and in combination with sasanlimab, lenalidomide or pomalidomide, in adult patients with advanced multiple myeloma who have relapsed from or are refractory to standard therapy. The study has been registered on ClinicalTrials.gov with identifier NCT03269136 and was first posted August 2017. Study results for Part 1 of the trial and additional arms for the study are described in this Example.
Part 1 of the Study is the […] single agent dose escalation arm at the dose levels of 0.1, 0.3, 1, 3, 10, 30, and 50 μg/kg Q1W by intravenous (IV) administration, and at the dose levels of 80, 130, 215, 360, 600 and 1000 μg/kg Q1W by subcutaneous (SC) administration. Upon reaching maximum tolerated dose (MTD)/maximum administered dose (MAD), patients can be treated at a dose level selected from the foregoing dose levels described in this paragraph, and below the MTD/MAD fora Q2W administration, both IV and SC, to further support the recommended phase 2 dose (RP2D) decision. For the study, dose limiting toxicity observation period is set at 21 days for Q1W dosing and 28 days for Q2W dosing. The treatment cycle, aka cycle, for Q1W dosing would be 3 weeks, and for Q2W dosing would be four weeks.
Clinical Outcome of Part 1 of the Study. As of 15 Apr. 2020, a total of 23 patients were enrolled in Part 1 of the study and had been treated with PF-06863135 administered intravenously (IV) at 0.1 (N=2), 0.3 (N=3), 1 (N=2), 3 (N=3), 10 (N=2), 30 (N=5), and 50 (N=6) μg/kg. As of Aug. 21, 2020, a total of 30 patients were enrolled in Part 1 of the study and had been treated with PF-06863135 administered subcutaneously (SC) at 80 (N=6), 130 (N=4), 215 (N=4), 360 (N=4), 600 (N=6) and 1000 (N=6) μg/kg. Safety and efficacy data were available for in 23 IV and 30 SC treated patients per IMWG (International Myeloma Working Group) criteria.
Part 1.1 of the Study is an alternative maintenance dose escalation arm for single agent PF-06863135. If excessive toxicity occurs or the maximum tolerated dose (MTD)/maximum administered dose (MAD) is reached at a dose level that is earlier than desired in Part 1 of the study described above, a priming dose will be administered one week prior to the day 1 cycle 1 administration of the dose (maintenance dose) at this dose level and for all subsequent dose levels in the dose escalation that may be initiated for Part 1.1. The priming dosing will be at a lower dose level than the maintenance dose.

[2] = 600 μg/kg priming, 1000 μg/kg Q1W or Q2W SC, N = 20

## CCC[C@H](N[C@H]1CCc2cc(F)cc(F)c2C1)C(=O)Nc1cn(C(C)(C)CNCC(C)(C)C)cn1 [GSI, nirogacestat]
Molp8; Molp8, GSI 0.01 nM
  BCMA (-PE) MFI: 1191.5
Molp8; Molp8, GSI 0.1 nM
  BCMA (-PE) MFI: 1242.5
Molp8; Molp8, GSI 1 nM
  BCMA (-PE) MFI: 1288.5
Molp8; Molp8, GSI 2.5 nM
  BCMA (-PE) MFI: 1401
Molp8; Molp8, GSI 5 nM
  BCMA (-PE) MFI: 1761.5
Molp8; Molp8, GSI 10 nM
  BCMA (-PE) MFI: 2183.5
Molp8; Molp8, GSI 25 nM
  BCMA (-PE) MFI: 3691
Molp8; Molp8, GSI 50 nM
  BCMA (-PE) MFI: 5120
Molp8; Molp8, GSI 100 nM
  BCMA (-PE) MFI: 5412
Molp8; Molp8, GSI 500 nM
  BCMA (-PE) MFI: 5640.5
Molp8; Molp8, GSI 1000 nM
  BCMA (-PE) MFI: 6401
OPM2; OPM2, GSI 0.01 nM
  BCMA (-PE) MFI: 2093.5
OPM2; OPM2, GSI 0.1 nM
  BCMA (-PE) MFI: 2079.5
OPM2; OPM2, GSI 1 nM
  BCMA (-PE) MFI: 2185
OPM2; OPM2, GSI 2.5 nM
  BCMA (-PE) MFI: 2358.5
OPM2; OPM2, GSI 5 nM
  BCMA (-PE) MFI: 2788.5
OPM2; OPM2, GSI 10 nM
  BCMA (-PE) MFI: 3190.5
OPM2; OPM2, GSI 25 nM
  BCMA (-PE) MFI: 6575.5
OPM2; OPM2, GSI 50 nM
  BCMA (-PE) MFI: 10863
OPM2; OPM2, GSI 100 nM
  BCMA (-PE) MFI: 14364
OPM2; OPM2, GSI 500 nM
  BCMA (-PE) MFI: 15910.5
OPM2; OPM2, GSI 1000 nM
  BCMA (-PE) MFI: 14747.5
RPMI8226; RPMI8226, GSI 0.01 nM
  BCMA (-PE) MFI: 10028
RPMI8226; RPMI8226, GSI 0.1 nM
  BCMA (-PE) MFI: 10099
RPMI8226; RPMI8226, GSI 1 nM
  BCMA (-PE) MFI: 10483.5
RPMI8226; RPMI8226, GSI 2.5 nM
  BCMA (-PE) MFI: 10226.5
RPMI8226; RPMI8226, GSI 5 nM
  BCMA (-PE) MFI: 10589.5
RPMI8226; RPMI8226, GSI 10 nM
  BCMA (-PE) MFI: 11181.5
RPMI8226; RPMI8226, GSI 25 nM
  BCMA (-PE) MFI: 12617
RPMI8226; RPMI8226, GSI 50 nM
  BCMA (-PE) MFI: 13190.5
RPMI8226; RPMI8226, GSI 100 nM
  BCMA (-PE) MFI: 13416
RPMI8226; RPMI8226, GSI 500 nM
  BCMA (-PE) MFI: 13464.5
RPMI8226; RPMI8226, GSI 1000 nM
  BCMA (-PE) MFI: 14362

## PF-06863135: heterodimeric humanized full-length bispecific antibody with one BCMA binding arm and one CD3 binding arm
[1]; 10 μg/kg IV cohort
  CRS observed, patient(s): 1 (50.0%)
[1]; 30 μg/kg IV cohort
  CRS observed, patient(s): 4 (80.0%)
  Patients who experienced dose limiting toxicities (DLTs): 1 patient
[1]; 50 μg/kg IV
  Patients in whom CRS also occurred after later doses (second to fourth): 3 patients
[1]; 50 μg/kg IV cohort
  CRS observed, patient(s): 6 (100.0%)
  Patients who experienced dose limiting toxicities (DLTs): 1 patient
[1]; 80 μg/kg Q1W SC, N = 6
  CRS Grade 1 (patients): 2
  CRS Grade 2 (patients): 1
  CRS Mean duration: 1 days
  Patients with CRS: 3 (50%)
[1]; 130 μg/kg Q1W SC, N = 4
  CRS Grade 1 (patients): 2
  CRS Grade 2 (patients): 0
  CRS Mean duration: 3 days
  Patients with CRS: 2 (50%)
[1]; 215 μg/kg Q1W SC, N = 4
  CRS Grade 1 (patients): 3
  CRS Grade 2 (patients): 0
  CRS Mean duration: 3 days
  Patients with CRS: 3 (75%)
[1]; 360 μg/kg Q1W SC, N = 4
  CRS Grade 1 (patients): 2
  CRS Grade 2 (patients): 1
  CRS Mean duration: 1.7 days
  Patients with CRS: 3 (75%)
[1]; 600 μg/kg Q1W SC, N = 6
  CRS Grade 1 (patients): 4
  CRS Grade 2 (patients): 2
  CRS Mean duration: 1.7 days
  Patients with CRS: 6 (100%)
[1]; 600 μg/kg priming then 1000 μg/kg vs 1000 μg/kg without priming, SC
  Decrease of medium duration of CRS by introducing priming dose: 50%
[1]; [2]
  CRS Grade 1 (patients): 11
  CRS Grade 2 (patients): 9
  CRS Mean duration: 2 days
  Patients with CRS: 20 (100%)
[1]; 1000 μg/kg Q1W SC, N = 6
  CRS Grade 1 (patients): 5
  CRS Grade 2 (patients): 1
  CRS Mean duration: 4 days
  Patients with CRS: 6 (100%)
[1]; IV cohorts, 23 patients, febrile neutropenia Grade 3 and electrocardiogram QT prolongation Grade 1
  Patients who experienced dose limiting toxicities (DLTs): 2 patients
[1]; IV cohorts, each of the 11 patients with CRS
  CRS onset after dosing: ≤ 2 days
[1]; Part 1.1, 600 μg/kg priming, 1000 μg/kg SC
  Impact of dose frequency (Q1W v. Q2W) on the CRS: no impact
[1]; SC cohorts (80-1000 μg/kg)
  Patients who experienced dose limiting toxicities (DLTs): No patients
[1]; SC cohorts, primarily
  CRS onset after dosing: ≤ 2 days
[1]; all IV treated patients
  Patients who experienced maximum Grade 1 CRS: 6 (26.1%)
  Patients who experienced maximum Grade 2 CRS: 5 (21.7%)
[1]; all SC treated patients
  Patients who experienced maximum Grade 1 CRS: 18 (60.0%)
  Patients who experienced maximum Grade 2 CRS: 5 (16.7%)
[1]; despite higher overall dose exposure in SC-treated patients
  CRS severity in SC-treated vs IV-treated patients: less severe CRS
[1]; highest dose levels of 600 and 1000 μg/kg SC
  Toxicities: tolerable and manageable
